Article PMC8625570, “Selectivity Determinants of RHO GTPase Binding to IQGAPs” (International Journal of Molecular Sciences, 2021)

Key:
Details in all cases: both partners purified
CDC42 (aa 1-178) = CDC42 (aa 1-178) (human, UniProt P60953 1-178); assay: SEC; analytical SEC of IQGAP1 GRD with CDC42^Q61L•GppNHp or CDC42^WT•GppNHp
CDC42^Q61L•GppNHp = CDC42^Q61L•GppNHp (human, UniProt P60953 1-178, Q61L); assay: as above
[1] = target: T1, IQGAP1^C794 (C-terminal half of human IQGAP1 with the GRD, RGCT and CT domains) (human, UniProt P46940 863-1657); assay: stopped-flow fluorescence spectrometry; kon from 0.2 µM mGppNHp-bound RHO GTPase with 2-8 µM IQGAP1^C794; koff by displacing with 10 µM unlabeled RAC1-GppNHp from 2 µM IQGAP1^C794 with 0.2 µM GTPase; Kd calculated from the rate constants; 25 °C
T1 sequence (looked up): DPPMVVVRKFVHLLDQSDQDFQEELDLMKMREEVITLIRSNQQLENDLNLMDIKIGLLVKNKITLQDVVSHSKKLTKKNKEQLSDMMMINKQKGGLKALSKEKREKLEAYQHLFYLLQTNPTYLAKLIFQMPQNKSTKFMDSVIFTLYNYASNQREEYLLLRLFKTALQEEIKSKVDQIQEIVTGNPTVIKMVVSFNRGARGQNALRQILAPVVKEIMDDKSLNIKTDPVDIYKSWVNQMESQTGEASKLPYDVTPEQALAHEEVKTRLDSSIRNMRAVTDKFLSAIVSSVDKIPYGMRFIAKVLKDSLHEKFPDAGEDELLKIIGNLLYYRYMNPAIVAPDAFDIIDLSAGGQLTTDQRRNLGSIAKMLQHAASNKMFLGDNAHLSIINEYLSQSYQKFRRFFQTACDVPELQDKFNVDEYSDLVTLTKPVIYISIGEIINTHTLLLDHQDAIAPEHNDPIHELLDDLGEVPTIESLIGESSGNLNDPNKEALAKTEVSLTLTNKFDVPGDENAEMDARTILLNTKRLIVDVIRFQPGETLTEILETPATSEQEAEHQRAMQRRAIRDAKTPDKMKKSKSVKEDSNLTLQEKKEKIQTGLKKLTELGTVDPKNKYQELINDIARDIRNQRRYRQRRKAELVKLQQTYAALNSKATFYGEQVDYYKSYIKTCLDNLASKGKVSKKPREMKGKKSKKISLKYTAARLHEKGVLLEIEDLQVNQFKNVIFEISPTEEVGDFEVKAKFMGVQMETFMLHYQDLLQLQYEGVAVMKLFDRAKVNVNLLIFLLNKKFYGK

[2] = target: T2, IQGAP2^C795 (C-terminal fragment of IQGAP2) (human, UniProt Q13576 780-1575); assay: stopped-flow fluorescence spectrometry; association (kobs): 2 µM IQGAP1^C794 or IQGAP2^C795 mixed with 0.2 µM mGppNHp-bound RHO GTPase; 30 mM Tris-HCl pH 7.5, 10 mM K2HPO4/KH2PO4 pH 7.4, 2 mM MgCl2, 3 mM DTT, 25 °C
T2 construct: IQGAP2, aa 780-1575; also called IQGAP2^C975
T2 sequence (looked up): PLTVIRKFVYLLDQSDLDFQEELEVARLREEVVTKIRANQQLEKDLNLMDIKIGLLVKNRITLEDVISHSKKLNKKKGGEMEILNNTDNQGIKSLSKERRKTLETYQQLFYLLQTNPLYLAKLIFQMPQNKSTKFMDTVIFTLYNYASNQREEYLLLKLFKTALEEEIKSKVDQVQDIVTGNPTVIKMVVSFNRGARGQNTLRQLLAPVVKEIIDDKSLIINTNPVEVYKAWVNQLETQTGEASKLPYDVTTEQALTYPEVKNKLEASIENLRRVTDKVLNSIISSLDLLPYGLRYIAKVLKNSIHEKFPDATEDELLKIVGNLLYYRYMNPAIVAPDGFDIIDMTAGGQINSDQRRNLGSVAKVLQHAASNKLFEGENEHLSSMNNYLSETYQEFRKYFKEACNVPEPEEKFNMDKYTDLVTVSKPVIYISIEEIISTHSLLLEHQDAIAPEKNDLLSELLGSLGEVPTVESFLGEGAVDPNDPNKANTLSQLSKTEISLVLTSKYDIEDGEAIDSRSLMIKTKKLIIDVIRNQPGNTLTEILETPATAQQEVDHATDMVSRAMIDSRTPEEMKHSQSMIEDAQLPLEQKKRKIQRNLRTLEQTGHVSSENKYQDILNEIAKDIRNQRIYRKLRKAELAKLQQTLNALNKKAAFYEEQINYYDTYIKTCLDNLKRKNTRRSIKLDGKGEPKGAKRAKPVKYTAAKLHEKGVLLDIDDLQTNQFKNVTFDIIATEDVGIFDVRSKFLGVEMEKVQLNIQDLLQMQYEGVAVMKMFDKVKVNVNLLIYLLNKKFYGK

RAC1 (aa 1-179) = RAC1 (aa 1-179) (human, UniProt P63000 1-179); assay: stopped-flow fluorescence spectrometry; competition: 4 µM IQGAP1^C794 premixed with 40 µM RAC-binding protein (10-fold molar excess), mixed 1:1 with 0.4 µM RAC1•mGppNHp; 25 °C

Sequence of CDC42^Q61L•GppNHp (P60953 1-178 Q61L): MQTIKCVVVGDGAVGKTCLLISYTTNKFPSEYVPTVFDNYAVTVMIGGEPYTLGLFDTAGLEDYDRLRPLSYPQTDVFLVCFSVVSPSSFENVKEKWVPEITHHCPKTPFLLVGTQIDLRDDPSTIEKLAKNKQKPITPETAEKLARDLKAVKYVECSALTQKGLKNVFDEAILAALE
Sequence of CDC42 (aa 1-178) (P60953 1-178): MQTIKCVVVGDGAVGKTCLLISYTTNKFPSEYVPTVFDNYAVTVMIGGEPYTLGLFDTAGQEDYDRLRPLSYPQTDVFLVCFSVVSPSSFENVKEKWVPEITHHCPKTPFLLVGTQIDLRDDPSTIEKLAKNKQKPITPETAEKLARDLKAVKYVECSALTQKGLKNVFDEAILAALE

B1: IQGAP1^GRD (RASGAP-related domain of IQGAP1) (domain or fragment, human, UniProt P46940 962-1345, looked up)
chain: SKEKREKLEAYQHLFYLLQTNPTYLAKLIFQMPQNKSTKFMDSVIFTLYNYASNQREEYLLLRLFKTALQEEIKSKVDQIQEIVTGNPTVIKMVVSFNRGARGQNALRQILAPVVKEIMDDKSLNIKTDPVDIYKSWVNQMESQTGEASKLPYDVTPEQALAHEEVKTRLDSSIRNMRAVTDKFLSAIVSSVDKIPYGMRFIAKVLKDSLHEKFPDAGEDELLKIIGNLLYYRYMNPAIVAPDAFDIIDLSAGGQLTTDQRRNLGSIAKMLQHAASNKMFLGDNAHLSIINEYLSQSYQKFRRFFQTACDVPELQDKFNVDEYSDLVTLTKPVIYISIGEIINTHTLLLDHQDAIAPEHNDPIHELLDDLGEVPTIESLIGESS
stoichiometry N (CDC42 (aa 1-178)): 1 GRD per CDC42 (printed as 2:2) | stoichiometry N (CDC42^Q61L•GppNHp): 2 CDC42^Q61L per GRD (printed as 2:1; order taken from p-0007)

B2: CDC42 V85D/S88D (natural protein)
chain: not shown
binding result [1]: binds

B3: RHOG (aa 1-178) (natural protein)
chain: not shown
binding result [1]: binds | binding result [2]: binds

B4: RHOA-to-RAC1 variant (RHOA K27T, D28N, E47M, E54N, D76Q) (natural protein)
chain: not shown
binding result [1]: binds

B5: DOCK2 DHR2 (DOCK homology region 2 domain of DOCK2) (domain or fragment)
chain: YKDNNREEMYIRYLYKLRDLHLDCDNYTEAAYTLLLHTWLLKWSDEQCASQVMQTGQQHPQTHRQLKETLYETIIGYFDKGKMWEEAISLCKELAEQYEMEIFDYELLSQNLIQQAKFYESIMKILRPKPDYFAVGYYGQGFPSFLRNKVFIYRGKEYERREDFQMQLMTQFPNAEKMNTTSAPGDDVKNAPGQYIQCFTVQPVLDEHPRFKNKPVPDQIINFYKSNYVQRFHYSRPVRRGTVDPENEFASMWIERTSFVTAYKLPGILRWFEVVHMSQTTISPLENAIETMSTANEKILMMINQYQSDETLPINPLSMLLNGIVDPAVMGGFAKYEKAFFTEEYVRDHPEDQDKLTHLKDLIAWQIPFLGAGIKIHEKRVSDNLRPFHDRMEECFKNLKMKVEKEYGVREMPD
notes: human DOCK2 DHR2 domain, aa 1211-1624; also called DOCK DHR2; source: pOPIN vector, purified; the methods say all proteins except IQGAP2^C795 were isolated as GST fusions with GST cleaved
binding result (RAC1 (aa 1-179)): binds

B6: CDC42 T25K/N26D (natural protein)
chain: not shown
binding result [1]: binds

B7: PAK1 GBD (GTPase-binding domain of PAK1) (domain or fragment)
chain: SILPGDKTNKKKEKERPEISLPSDFEHTIHVGFDAVTGEFTGMPEQWARLLQTSNITKSEQKKNPQAVLDVLEFYNSKKTSNSQK
binding result (RAC1 (aa 1-179)): binds

B8: CDC42 Q74D (natural protein)
chain: not shown
binding result [1]: binds

B9: p50^GAP (GAP domain) (domain or fragment)
chain: HVKLEQLGIPRQVLKYDDFLKSTQKSPATAPKPMPPRPPLPNQQFGVSLQHLQEKNPEQEPIPIVLRETVAYLQAHALTTEGIFRRSANTQVVREVQQKYNMGLPVDFDQYNELHLPAVILKTFLRELPEPLLTFDLYPHVVGFLNIDESQRVPATLQVLQTLPEENYQVLRFLTAFLVQISAHSDQNKMTNTNLAVVFGPNLLWAKDAAITLKAINPINTFTKFLLDHQGELFPSPDPSGL
binding result (RAC1 (aa 1-179)): binds
